Values belong to the substance of their own block, whether it stands above or below them.
Tests used:
[1] = molecular target: purified GDF8 prohormone with C-terminal FLAG epitope (GDF8 prohormone-FLAG fusion protein) (human) (UniProt O14793); assay: ELISA, purified GDF8 prohormone coated 250 ng/well; MAB 788 10 mg/ml diluted 1:20
[2] = molecular target: GDF8 protein (R&D Systems Inc., Minneapolis, Minn.) (UniProt O14793); assay: cell-based or functional assay
[3] = molecular target: DJ2 peptide (GDF8 residues 282-301) (human); assay: ELISA, peptide coated 500 ng/well; MAB 788 10 mg/ml diluted 1:80
Chain of DJ2 peptide (GDF8 residues 282-301) (human) (peptide, as listed by the source): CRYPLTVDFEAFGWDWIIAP

[4] = molecular target: DJ4 peptide (GDF8 residues 312-331) (human); assay: as above
Chain of DJ4 peptide (GDF8 residues 312-331) (human) (peptide, as listed by the source): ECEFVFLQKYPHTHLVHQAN

[5] = molecular target: DJ5 peptide (GDF8 residues 327-346) (human); assay: as above
Chain of DJ5 peptide (GDF8 residues 327-346) (human) (peptide, as listed by the source): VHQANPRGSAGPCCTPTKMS

[6] = molecular target: DJ6 peptide (GDF8 residues 342-361) (human); assay: as above
Chain of DJ6 peptide (GDF8 residues 342-361) (human) (peptide, as listed by the source): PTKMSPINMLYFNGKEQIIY

[7] = molecular target: DJ3 peptide (GDF8 residues 297-316) (human); assay: as above
Chain of DJ3 peptide (GDF8 residues 297-316) (human) (peptide, as listed by the source): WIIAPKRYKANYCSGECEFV

[8] = molecular target: DJ1 peptide (GDF8 residues 267-286) (human); assay: as above
Chain of DJ1 peptide (GDF8 residues 267-286) (human) (peptide, as listed by the source): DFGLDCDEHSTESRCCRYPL

[9] = molecular target: DJ7 peptide (GDF8 residues 357-375) (human); assay: as above
[10] = molecular target: purified GDF8 prohormone with C-terminal FLAG epitope (GDF8 prohormone-FLAG fusion protein) (human) (UniProt O14793); assay: ELISA, purified GDF8 prohormone coated 250 ng/well; MAB 788 10 mg/ml diluted 1:40
[11] = molecular target: DJ2 peptide (GDF8 residues 282-301) (human); assay: ELISA, peptide coated 500 ng/well; MAB 788 10 mg/ml diluted 1:40
[12] = molecular target: DJ4 peptide (GDF8 residues 312-331) (human); assay: as above
[13] = molecular target: DJ5 peptide (GDF8 residues 327-346) (human); assay: as above
[14] = molecular target: DJ6 peptide (GDF8 residues 342-361) (human); assay: as above
[15] = molecular target: DJ3 peptide (GDF8 residues 297-316) (human); assay: as above
[16] = molecular target: DJ1 peptide (GDF8 residues 267-286) (human); assay: as above
[17] = molecular target: DJ7 peptide (GDF8 residues 357-375) (human); assay: as above
[18] = molecular target: DJ2 peptide (GDF8 residues 282-301) (human); assay: ELISA, peptide coated 500 ng/well; MAB 788 10 mg/ml diluted 1:20
[19] = molecular target: DJ4 peptide (GDF8 residues 312-331) (human); assay: as above
[20] = molecular target: DJ5 peptide (GDF8 residues 327-346) (human); assay: as above
[21] = molecular target: DJ6 peptide (GDF8 residues 342-361) (human); assay: as above
[22] = molecular target: DJ3 peptide (GDF8 residues 297-316) (human); assay: as above
[23] = molecular target: DJ1 peptide (GDF8 residues 267-286) (human); assay: as above
[24] = molecular target: DJ7 peptide (GDF8 residues 357-375) (human); assay: as above
[25] = molecular target: purified GDF8 prohormone with C-terminal FLAG epitope (GDF8 prohormone-FLAG fusion protein) (human) (UniProt O14793); assay: ELISA, purified GDF8 prohormone coated 250 ng/well; MAB 788 10 mg/ml diluted 1:80

OD 405/minute × 1000 (OD 405/minute × 1000) [1]: 132 | % Inhibition of GDF8 Activity (0.1 µg IgG), A204 CAGA-luciferase transcriptional activation assay [2]: 0% | % Inhibition of GDF8 Activity (1.8 µg IgG), A204 CAGA-luciferase transcriptional activation assay [2]: 0% | % Inhibition of GDF8 Activity (3.1 µg IgG), A204 CAGA-luciferase transcriptional activation assay [2]: 7% | % Inhibition of GDF8 Activity (6.3 µg IgG), A204 CAGA-luciferase transcriptional activation assay [2]: 17% | % Inhibition of GDF8 Activity (12.5 µg IgG), A204 CAGA-luciferase transcriptional activation assay [2]: 47% | OD 405/minute × 1000 (OD 405/minute × 1000) [3]: 0 | OD 405/minute × 1000 (OD 405/minute × 1000) [4]: 0 | OD 405/minute × 1000 (OD 405/minute × 1000) [5]: 102 | OD 405/minute × 1000 (OD 405/minute × 1000) [6]: 0 | OD 405/minute × 1000 (OD 405/minute × 1000) [7]: 0 | OD 405/minute × 1000 (OD 405/minute × 1000) [8]: 0 | OD 405/minute × 1000 (OD 405/minute × 1000) [9]: 0 | OD 405/minute × 1000 (OD 405/minute × 1000) [10]: 127 | OD 405/minute × 1000 (OD 405/minute × 1000) [11]: 0 | OD 405/minute × 1000 (OD 405/minute × 1000) [12]: 0 | OD 405/minute × 1000 (OD 405/minute × 1000) [13]: 118 | OD 405/minute × 1000 (OD 405/minute × 1000) [14]: 0 | OD 405/minute × 1000 (OD 405/minute × 1000) [15]: 0 | OD 405/minute × 1000 (OD 405/minute × 1000) [16]: 0 | OD 405/minute × 1000 (OD 405/minute × 1000) [17]: 0 | OD 405/minute × 1000 (OD 405/minute × 1000) [18]: 0 | OD 405/minute × 1000 (OD 405/minute × 1000) [19]: 0 | OD 405/minute × 1000 (OD 405/minute × 1000) [20]: 133 | OD 405/minute × 1000 (OD 405/minute × 1000) [21]: 0 | OD 405/minute × 1000 (OD 405/minute × 1000) [22]: 0 | OD 405/minute × 1000 (OD 405/minute × 1000) [23]: 4 | OD 405/minute × 1000 (OD 405/minute × 1000) [24]: 0 | OD 405/minute × 1000 (OD 405/minute × 1000) [25]: 132
Substance: Rat monoclonal antibody 788 (R&D Systems Inc., Cat. No. MAB788)

% Inhibition of GDF8 Activity (250 µg IgG), A204 CAGA-luciferase transcriptional activation assay [2]: 0%
Substance: normal goat IgG (negative control purified from non-immunized goat sera) (antibody)

Source: patent US20090311282A1
